{"source": "patent US6150511", "about": "(Fox Chase Cancer Center)", "binders": {"B1": {"name": "tandem lexA operator segment (in pBR711-2) (dsDNA)", "DNA 1": "GGGGTCGACATTACTGTATATATATACAGCATAACTGTATATATATACAGTATAGGATCCGGG", "DNA 2": "CCCGGATCCTATACTGTATATATATACAGTTATGCTGTATATATATACAGTAATGTCGACCCC"}}, "target": "LexA repressor (UniProt P0A7C2 P0A7C2:1-202)", "sequence (P0A7C2 whole entry, one chain of several)": "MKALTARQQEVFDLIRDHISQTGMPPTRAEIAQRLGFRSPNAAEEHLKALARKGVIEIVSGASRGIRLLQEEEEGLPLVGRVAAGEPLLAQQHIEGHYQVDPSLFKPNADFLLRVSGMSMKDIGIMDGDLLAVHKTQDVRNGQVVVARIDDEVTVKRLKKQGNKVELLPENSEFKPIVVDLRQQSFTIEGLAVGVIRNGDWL", "test": "operator region protected from integration by wild type IN; 5 mM MgCl2, 37 C", "conditions": "chain copies: 2 (stated)", "method": "Assay for integration into pBR322 targets containing lexA operators. Integration of the model viral DNA duplex into a heterologous target was measured using a PCR-based assay similar to that described by Pryciak et al., EMBO J. 11: 291–303 (1992). The target DNAs, pBR322 derivatives, contain the lexA operator region. To measure integration into a specific region, a \"target\" PCR primer was selected, which was ca. 250 bp from the lexA operator region. The \"viral\" primer was identical to the 16nt DNA strand to be joined to the target DNA. The length of the PCR product corresponds to the distance from the target primer site to the integration site. Integration assays contained approximately 0.2 pmoles of PstI linerarized plasmid target DNA, 35 pmoles of IN or IN-lexA fusion protein and 0.1 pmol of viral DNA ends (model substrate). The reaction mixture contained 20 mM Tris-HCl and 5 mM MgCl_2. The viral DNA substrate was a 18 mer/16 mer duplex with a recessed end. This corresponds to a processed viral DNA end, as described previously (Katzman et al., 1989, supra). […] Recovery of target DNA was monitored by agarose gel electrophoresis. […] Products were analyzed on 7% acrylamide-urea sequencing gels. Fragment sizes were determined using a ØX174HaeIII digest and a 10 bp ladder (Bethesda Research Labs)."}
{"binder": "B1", "values": [{"measurement": "binding result", "value": "binds"}]}
